# Source: patent publication US20240026407A1, “MODIFICATION OF SAPONINS” (GLAXOSMITHKLINE BIOLOGICALS SA, priority 2020, published 2024)
# B1: 1071 (protein, listed as Opitutus terrae)
# chain: MKRMKIMKRRIDIFRSSLFLGAYPAMAAPFVQRSAWIWSAEGTHAAPAPESASPSHYQVRLFRRVFLLENGGREGRIAVSADSRYVLYCNGALIGRGPARGDVHHQFYDTYELAPYLHRGANVLAALVLDMSHVAHRPAALGAPGGVMTYAGGFLLEGGVVDLNDRMEILDTGAAGWKVTVDRSYRFQNDGTRFEGYHGYFEHRVSAEAPADWTAASFDDSAWPDATVLYRAERLENRRDPASPYGLVARMIPPMEVGRVARFAAGVLPGGGKPGAEWKRLAAGKGAVTIPARSTVRIILDAGRMTTAYPLVQTDGGPGAHIRLTYAEALRLPWSTVGARMLGRPQSLANLASHFADESSGWTFDARGHVTGWSDRWEPAGRPREVFEPWHWRSFRFVELEIVTAEEPMELTDLGYRFTAYPYRVEAEFACSDPRLERIWQTALHTMRLCSHETFVDCPHYEQMQYAGDTMITSKLAMLSTGDYALSRQALLQFDWSRIPDGLTQSRYPSRLLQVIPSWSLHWITSIRDYACCSGDLQTVNEVLPGVRVVLDWYRRHADPSGLPSRLPYWNITDWCSWWPRGVVPGADEGPTCIISAQFVQALAEAADLHGWVGQRHEQRRLATEVKTLRGVLRRRFWSRDEGLFFDKPGGPEVSQYGNAWAIVCGAATAADRKRMLARFPADPLLAPGSFFCWHAVFRALEAAGAYDRLPEFLGPWHEMVEAGLDTFVEENSYWRSLCHAWSAHPALEFLAGVLGVKALEPGFATVRVTPHRCGLREARGQVCTPRGPITVAWTWEKGRFRIRVTAPRELQVEIGLPDGSDHRMTHGRFETEVVIHEA
# B2: 1033 (protein, listed as Pedobacter heparinus)
# chain: MNRRTFIQNTSIATSSLVFFNQFESLAFSKSDQDLYTLFKNPPANYRPFVRWWWNGNKIQKKELFRQLTLLKDAGIGGVEINPISFPNKADDMGIKSLRWLSDEWIDLVKDTCNEARSKDMTCDLIVGSGWPFGSEDLKEEERAEVVLVFAEKVEGPMVYETTKYSIYNAIDPQVTDKNPLRSPILMDLKLSQDPIAAIATTIDFSNQINNDIIKIDVPEGKHCIYALVKFKSFAKVINGAPGASGSILNHLNKQAVESYLNRMSSTMQDRIGPLSNYLRALFTDSMELEGCNWCEDFPAEFKKRCGYDLMPYLPFILFKVGRLGAVVDEDYGAEKSQDLNVILKKVRFDFEYTKALLLRERFTEVYLKWCKELKVKSRAQAYGRGFFPLETSLGYDIPEGESWTTNYLRHKLGEEMSDEDYRRGRGYTMINKYVSSAAHLTGKRIVSCEEMTNTYLVFNATLELLKLGSDQSIMSGITHSVWHGFNYSPKEVAFPGWVQYGSYYSEKNNWWPYFKYLNDYKARLSSQLQHGDYYTDIAILPANYDLWANNGVQTDPFPEKLNVPYTSLLWEAINKNGGAADYITDMILTQSEIIKGKIVYGKKSFGVLFLPGVESLSELAMQKIEQFVKTGGKVICIEKYPAKGLGFLNWEQKDATIKDAVARLKQQFSDRFIFLDKPADNKFLEWYTPLIATHQLPSYLNISTPNRYFMQIRSVRDDGTEMFFFQNAHRYDAYQARVVFDRKKIKGKYAWVWDLDSGERFRLTLTNDTTFEYNFGPTESLLIIFDQIKNGEKWKPLLSSGKSTLNLDKVWDLELRNSLDGSVKHVNLPQVIDMKDDKELVNFTGTAIYRKKITLTDTKNLVINLGKVYGITQLYINKVQVGIKWYGKRFFDISKYVQTGTNDIEIHLVTTMGNYMKTLTDNEIAQYWVNRKGREQEIQSMGIVGPIEIYQQN
# B3: 1059 (protein, listed as Solibacter usitatus)
# chain: MVEMSVPVLRSSAFIALLAGLALGADPANITELQRGFQHPPDEARIMVRWWWFGPAVTKPELEREMRLMKQGGIGGFEVQPTYALELDNAEKGIKNLPYMSPEFLEALRFTGEKAKELGLRMDLTLGSGWPFGGPHIPVELASPRLRVARAAVTAGAAAINVPELQPSEKLIAAFLGNQELEAAGSQSFRLPPSAAGQVTFFISSHTRQTVKRPAVGAEGWVLNHYDRAAIEQHFKSVGEPMLNALAKTPPAAIFSDSLEVYNSDWTGDFLAQFAKRRGYDLKPYLPALAGDIGEKTGAIRNDWGQTLSELAEENYLKPLTAWAHQHNTKFRSQTYGIPPVTLSSYSLVDLPEGEGTQWRHFSSTRWATSASHLYNRPVTSSETWTWLHSPVFRATPLDMKAEADLHFLQGVNQLVAHGWPYSPPSVGEPGWRFYAAAVFNEHNPWWIVMPDIATYMQRVSWMLRQGKPVNDVAVYLPTHDAFAGFTLGRDSVNQAMEGILGPKLVPTILDAGYGFDFIDDGAIAAGGVPHKILIVPGAERIPLATYQKIEEYRRDGGKVFFTKRLPSLAPGLREEGDTAKIRELSAKHVVTGDDGLAGALHDALPADFTAPPEIGVVHRKLAYADVYFLANTSNHAVKGAAKFRASGMPAAWWDPVTGKSSKADLNLELAPYESRVLVFSRAGGAVMGQAMSLPEVDISSDWTITFPGEQPVKMATLRPWTDEENRKFYSGTATYERKVTATPAMAAAHVFLNFGEGTVADPASERRAPSGMRAWLESPVREAAQVFVNGKPAGAVWKAPYEVDVTGLLQAGENSIRVVVANLALNVLAKGPLPDYKELTAKYGEKFQAQDMQSVRALPGGMMGPVKLVSK
# B4: 1067 (protein, listed as Pedobacter heparinus)
# chain: MKLIPNFLKTSMQQTVLLLLLALVCCADTVLAQQSGKASWIWYPGDLDIWVSNKMQNRRTERGAFLPPFWKMDSHYVLVEFHKEFNLANAEEVNLYVEGQYNVKIDGQAFSGYPKKITVPAGKHKLSLKVYGQDKVPAILVQGKTVVSDESWLATFEDKEWIDASGKASDKSGTTFVSAASWNLTDPLSPPSRFKLATTPMAAVKTDKVNNGFVADFGKETFGFIKLHGLKGKGKLHIYYGESKEEALSADHCETLDLLEIDLKGKQDSVIELSKAFRYVNCQPEGNVTLDKVSMLYEYAPVTEKGNFRCSDEQINKIYDISKYTFHLNTREFFIDGIKRDRWVWSGDAYQSYLMNYYSFNESPIVKRTLLAQRGKDPVTAHINTIMDYSFYWFLGIYDYYQYSGDQKFVQDIYPRMKSLMDYVLGRRNKDGLLEWMPGDWIFIDWADKLSKDGEVSFEQLLFCRSLETMALCADMAKDTEAAANYKKLAADLKARIFKLYWDENKHALVHSRINGKPTDNVTRYANMFGIFFDYFSPSQKQEVKQHVLMNNKINKITTPYMRFYELEALCAMGEQSYVLKQMKDYWGGMLELGATSFWEEYNRDKKGVEHLAMYGRPFGKSLCHAWGASPIYLLGKYYLGVKPLSAGYETYVVEPSLGGLEWMEGKVPTPSGEISLYCSKKEIRIKADEGSGVLRFKSVSKPVVKGGKVVEVGKRTYELKLMKGVQYTVNYQK
# B5: 1019 (protein)
# chain: MNKKQLILLCMLAAGGSIQAQQWPDAPAEARPGTRWWWLGSAVDEKNLTYNLEEYARAGMGAVEITPIYGVQGNDANDIQFLSPRWMEVLKHTQAEGKRTGIEIDMNTGTGWPFGGPEVSIEDAASKAIFQTYDIEGGQEIVQDINVTDKKQQPYSVLSRVMAYDENGRCINLTSHVRKDKLVWKAPAGKWKVIALYNSKTRQKVKRAAPGGEGYVMNHLSKTAVKNYLSRFNRAFKSSKTSYPHTFFNDSYEVYQADWTEDFLDQFARRRGYKLEEHFPEFLDENRPEISRRIVSDYRETISDLLLENFTRQWTDWAHKNGSITRNQAHGSPANLIDVYAAVDIPECEGFGLSQFHIKGLRQDSLTKKNDSDLSMLKYASSAAHIAGKPYTSTETFTWLTEHFRTSLSQCKPDMDLMFVSGINHMFFHGTPYSPKEAEWPGWLFYASINMNPTNSIWHDAPSFFDYITRCQSFLQMGKPDNDFLIYLPVYDMWDEQPGRLLLFSIHHMAKLAPKFIDAIHRINNSGYDGDYISDNFIRSTRFKDGQLITSGGTGYKALVVPAAHLMPNDVLAHLLKLAQQGATIVFLENYPTDVPGYGQLEQKRKTYQQTLQKLPSVSFSETTVTPVGKGKIITGTDYARTLASCNIPQEEMKTKFGLQAIRRVNDSGHHYFISSLQDKGVNDWVTLGTKAKAAALFNPMTGECGEAKVRQAGEQTQVYLQLKSGESVILQTYQQPLQAARPWKYIQEQPFSLSLDHGWKLHFAESEPKIKGTFDIDRPCSWTGIDHPAAKINMGSGVYSLDIELPALQADDWVLDLGDVRESARVRINGQEAGCAWAVPYQLRVGHLLKSGKNHIEIEVTNLPANRISELDRQGVQWRKFKEINIVDLNYRPANYGHWAPMPSGLNSEVRLIPVDYLSFKTH
# modifications: Bacteroides thetaiotaomicron
# B6: 1064 (protein, listed as Lachnospiraceae bacterium)
# chain: MEIYNLKINGMVNPIGFEYKEIICSWKVRKTEDKQQKKARISISADQEFHEIVFQIEGEELDSTGTLADFKIKPYTTYYWKVYVEGENGEYGTSETAFFETAKMCHKWKADWIGTDKEDTFHPVFQKKFYLRDGIKKARLYCCGLGVYEGYINGKKAGNDYLAPFINDYKDNLQYQTYDITDLLFQQKENKIEFLLGKGWYIGKFGLDGCEKIFGDEMMLIAEIRVEYFDGRIEVICTDDNWKYKGSDIEDSGIYFGEKINRQLWDDRQNLWKQAVKKKQKTPLKERYSLPLTVKEDIVPVKIIHTPIGETVLDVGQNMVGYMEFFADFPKGTRIKIECGEILQHGNFCHDNYTIAESTFEYISDGRKETVRPHFTYMGFRYLRVTGWPNEIKLGDIKCRVIYSDLQRTGFCKTQNSMLNQLYENCIWSQKSNFVDMPTDCPQRGERLGWTGDAQVFAATACYNMDTRAFYRKYLRDIRSHQLRKNGAIPNFIPDLGTFSEACSIWGDAATILPYQIYQSYGCAEEIRSYYTTMKDWVEYMVSMDESQGRHYKFQPGFQFGDWLALDGITEQSLKGSTDDNYIGCCYYYHSVKITSEIAQVLGYTEDAQRYQELSGKIRKAILNEYFTPKGRLSVDTQTAYIIALKFGLYNNKNVLIQQFKERLTRDCYKIKCGFAGTPLLCSVLGENGMEDIAYRILLNKDYPGWLYCVNLGATTVWERWNSVLSDGMLSGTGMNSLNHYAYGSVVQYFYEYIAGIRPKRPGFKEAFIEPKPDIRIQGVMCSYDSAMGVYKSEWKIQENGLICIHIEIPFNCTADVLLPEYSSNGLTYSDNVNGEMISENGKLQLCSGKYDFAYFPKNDYRHVYKPESILGDLREDKEALEILEKNIPVLYEIIQSNDIENMLITLQEFDTLHFMGIDPEIADETRKKIYNLNYYGK
# Assay: Experiment 6-1: screening of rhamnosidases for derhamnosylation of saponins in treated bark extract (2%), QS-17 2296 to QS-18 2150 (PAR %)
# Format: biochemical, Quillaja saponaria
# Details: TBE 2%, pH 7.5, 30 degC, 18 h; TIC peak area ratio percent of rhamnosylated starting saponin to derhamnosylated product, LCMS/MS; negative controls 4.876, 5.225
row,Molecule,QS-17 (PAR %) [%]
1,B1,4.587
2,B2,4.485
3,B3,4.613
4,B4,4.455
5,B5,4.626
6,B6,4.625

# Assay: Experiment 6-1: screening of rhamnosidases for derhamnosylation of saponins in treated bark extract (2%), desglucosyl-QS-17 2134 to QS-21 1988 (PAR %)
# Format: biochemical, Quillaja saponaria
# Details: TBE 2%, pH 7.5, 30 degC, 18 h; TIC peak area ratio percent, LCMS/MS; negative controls 2.719, 2.158
row,Molecule,Peak75 (PAR %) [%]
1,B1,2.574
2,B2,2.521
3,B3,2.534
4,B4,2.231
5,B5,2.982
6,B6,2.476

# Assay: Experiment 6-1: screening of rhamnosidases for derhamnosylation of saponins in treated bark extract (2%), QS-17 2310 to QS-18 2164 (PAR %)
# Format: biochemical, Quillaja saponaria
# Details: TBE 2%, pH 7.5, 30 degC, 18 h; TIC peak area ratio percent, LCMS/MS; negative controls 3.061, 2.429
row,Molecule,Peak57 (PAR %) [%]
1,B1,2.650
2,B2,2.927
3,B3,2.956
4,B4,2.852
5,B5,2.390
6,B6,3.009

# Assay: Experiment 6-1: specificity of rhamnosidases towards other rhamnose residues (C3 saccharide rhamnose, C28 saccharide rhamnose)
# Format: biochemical, Quillaja saponaria
# Details: TBE 2%, pH 7.5, 30 degC, 18 h; LCMS/MS; negative controls 0.18, 0.17
row,Molecule,ratio PP/QS-21
1,B1,0.17
2,B2,0.16
3,B3,0.16
4,B4,0.17
5,B5,0.15
6,B6,0.18
